Data on 2 molecules can be found in patent US20230103885A1 (CRISPR THERAPEUTICS, published 2023).

The target in assay [1] is T1, anti-CD19 CAR comprising the anti-CD19 scFv of SEQ ID NO:1.
T1 construct: also called anti-CD19 chimeric antigen receptor; anti-CD19 CAR T cells
The experiment in a line: flow cytometry on anti-CD19 CAR T cells, dilution 1:800. From the text: (§1) The 29E4B5 antibodies produced using the first or the second method were compared with a reference anti-FMC63-scFv antibody (rec_mab3) for the ability to bind to the anti-CD19 CAR T cells using flow cytometry. Both methods produced 29E4B5 antibodies with higher affinity to the anti-CD19 cells than rec_mab3, showing higher CAR positive percentage even at 1:6,400 dilutions (Table 9).

For assay [2], the target named is T1, anti-CD19 CAR comprising the anti-CD19 …. Put plainly: flow cytometry on anti-CD19 CAR T cells, dilution 1:400.
Description: as §1

Assay [3] has the same target. The experiment in a line: flow cytometry on anti-CD19 CAR T cells, dilution 1:50.
Description: as §1

Assay [4] shares this target. Put plainly: flow cytometry on anti-CD19 CAR T cells, dilution 1:3200.
Description: as §1

Assay [5] has the same target. Put plainly: flow cytometry on anti-CD19 CAR T cells, dilution 1:6400.
Description: as §1

The target is the same in assay [6]. Put plainly: flow cytometry on anti-CD19 CAR T cells, dilution 1:200.
Description: as §1

Assay [7] has the same target. Put plainly: flow cytometry on anti-CD19 CAR T cells, dilution 1:100.
Description: as §1

Assay [8] shares this target. The experiment in a line: flow cytometry on anti-CD19 CAR T cells, dilution 1:1600.
Description: as §1

B1: reference anti-FMC63-scFv antibody (rec_mab3) (antibody, V domains shown)
VH: EVKLVESGGGLVQPGGSLKLSCAASGFDFSRYWMSWVRQAPGKGLEWIGEINLDSSTINYTPSLKDKFIISRDNAKNTLYLQMSKVRSEDTALYYCARRYDAMDYWGQGTSVTVSS
VL: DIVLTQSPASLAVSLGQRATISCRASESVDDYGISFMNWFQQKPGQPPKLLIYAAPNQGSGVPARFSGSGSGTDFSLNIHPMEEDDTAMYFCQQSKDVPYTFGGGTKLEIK
notes: also called control anti-FMC63-scFv antibody
With B1, the “% CAR+” value in assay [1] stood at 66.4%; in assay [2], 68.9%; in assay [3] it was 69.8%; in assay [4] it was 56.6%; in assay [5] it was 49.1%; in assay [6] it was 69.7%. Besides, the “% CAR+” value in assay [7] was found to be 69.4%; in assay [8] it was 62.2%.

B2: 29E4B5-1 (Recombinant) (antibody, V domains shown)
VH: EVKLLQSGGGLVQPGGSLKLSCAASGIDFSRYWMSWVRRAPGKGLEWIGEINLDSSTKNYAPSLKDKFIISRDNAKNTLYLQMSKVRSEDTALYYCARNYVGMDYWGQGTSVTVSS
VL: DIVLTQSPASLAVSLGQRATISCRASKSVSSSDYTYMHWYQQKPGQPPKLLIYLASNLESGVPARFSGSGSGTDFTLNIHPVEEEDAATYYCQHSRELPPTFGGGTKLEIK
notes: also called recombinant 29E4B5 antibody
With B2, the “% CAR+” value came out at 68% in assay [1]; 69.1% in assay [2]; 69.6% in assay [3]; 62.5% in assay [4]; 58% in assay [5]; 68.8% in assay [6]. The “% CAR+” value was 69.3% in assay [7] and 65.9% in assay [8].
